B1: ∆Hag (flg22), Hag with the flg22 region deleted (domain or fragment)
chain: not shown
B2: flg22 (Bs), synthetic flg22 peptide of B. subtilis Hag (peptide)
chain: EKLSSGLRINRAGDDAAGLAIS
B3: 6× His-tagged Hag protein (natural protein)
chain: not shown
modifications: labelled with Cy5-NHS ester (in the MST assay only)

The Kd is a measure of binding affinity in units of concentration.

The test concerns the target T1, lantibiotic subtilomycin (Bacillus subtilis BSn5, lantibiotic; ApnB carries out the essential dehydration reaction of its biosynthesis; the modified residues are not listed).
T1 construct: subtilomycin, the lantibiotic made from the structural peptide encoded by apnA of Bacillus subtilis BSn5; exact molecular weight 3234.36 Da; Purified subtilomycin holds oligomers (trimers, tetramers, pentamers); source: B. subtilis BSn5 ∆hag mutant, 30% ammonium sulfate precipitate of culture supernatant, purified by prep-HPLC; also native in Apn5 (30% ammonium sulfate precipitate of BSn5 culture …)
The experiment in a line: MST; protein labelled with Cy5-NHS ester at fixed concentration, serial 2x dilutions of unlabelled subtilomycin (1 mM set as highest; 500 μM highest final in the legend); PBS pH 8.0; MST power 20%, LED power 60%; Monolith NT.115; constants called ambiguous, based on total subtilomycin concentration. Particulars: both partners purified.
In turn, B1 registered a Kd of 66.4 ± 9.11 µM.

In turn, B2 showed an equilibrium dissociation constant (Kd) of 169 ± 10.4 µM. With B3, the affinity, expressed as Kd, was 18.8 ± 4.15 µM.

These data come from PMC6787100, “Endophyte Bacillus subtilis evade plant defense by producing lantibiotic subtilomycin to mask self-produced flagellin” (Communications Biology, 2019).
